# Results: patent US10117916B2, “Peptides and combination of peptides for use in immunotherapy against CLL and other cancers” (immatics biotechnologies GmbH, priority 2015, dated 2018)
# Molecular target: HLA-A*02:01 (Homo sapiens, UniProt P04439, D140Y/D185E/D98H/E176V/E277Q/G131W/G231S/I119V/I121R/I166T/I218V/L300P/L318F/N151K/N90K/P208A/P217A/Q86G/Q94H/R138H/R169H/T345S)
# Experiment: MHC binding assay: UV-ligand exchange with β2m ELISA (peptide exchange yield)
# Conditions: MHC class I binding score; binding to HLA-A*02:01 ranged by peptide exchange yield (UV-ligand exchange, β2m ELISA)
# Method in brief: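 UV-exchange pMHC monomers, 100-fold diluted → streptavidin capture 1 h 37 °C → HRP anti-β2m 2 ug/ml 1 h 37 °C → TMB, A450. Yield from HLA-A*02:01/MLA-001 monomer standard curve, 15-500 ng/ml. Only stably bound peptides keep β2m-containing complexes intact.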
row,Substance,Peptide Exchange
1,214 (RLQELTEKL; listed as Homo sapiens) [compound 214],″+++″ (≥50 = +++)
2,107 (ILYNLYDLL; listed as Homo sapiens) [compound 107],″+++″ (≥50 = +++)
3,65 (GLDDMKANL; listed as Homo sapiens) [compound 65],″++″ (≥20% = ++)
4,330 (VLMWEIYSL; listed as Homo sapiens) [compound 330],″+++″ (≥50 = +++)
5,22 (ALWDPVIEL; listed as Homo sapiens) [compound 22],″+++″ (≥50 = +++)
6,150 (SLFDQPLSII; listed as Homo sapiens) [compound 150],″+++″ (≥50 = +++)
7,309 (ILYGTQFVL; listed as Homo sapiens) [compound 309],″+++″ (≥50 = +++)
8,172 (TLYDMLASI; listed as Homo sapiens) [compound 172],″+++″ (≥50 = +++)
9,72 (GLLDAGKMYV; listed as Homo sapiens) [compound 72],″+++″ (≥50 = +++)
10,335 (YLYQEQYFI; listed as Homo sapiens) [compound 335],″+++″ (≥50 = +++)
11,186 (VMDPTKILI; listed as Homo sapiens) [compound 186],″++++″ (≥75% = ++++)
12,284 (LLSAAEPVPA; listed as Homo sapiens) [compound 284],″++″ (≥20% = ++)
13,242 (ILLGIQELL; listed as Homo sapiens) [compound 242],″+++″ (≥50 = +++)
14,236 (GLLESGRHYL; listed as Homo sapiens) [compound 236],″+++″ (≥50 = +++)
15,117 (LLILENILL; listed as Homo sapiens) [compound 117],″+++″ (≥50 = +++)
16,19 (QVMEKLAAV; listed as Homo sapiens) [compound 19],″+++″ (≥50 = +++)
17,198 (YLTFLPAEV; listed as Homo sapiens) [compound 198],″+++″ (≥50 = +++)
18,121 (RLYEITIEV; listed as Homo sapiens) [compound 121],″++++″ (≥75% = ++++)
19,275 (VLLFIEHSV; listed as Homo sapiens) [compound 275],″+++″ (≥50 = +++)
20,84 (GVMDVNTAL; listed as Homo sapiens) [compound 84],″++″ (≥20% = ++)

row,Substance,Peptide Exchange
1,170 (TLTFRVETV; listed as Homo sapiens) [compound 170],″+++″ (≥50 = +++)
2,348 (ALAKPPVVSV; listed as Homo sapiens) [compound 348],″+++″ (≥50 = +++)
3,42 (FLEEGGVVTV; listed as Homo sapiens) [compound 42],″+++″ (≥50 = +++)
4,314 (LMKDCEAEV; listed as Homo sapiens) [compound 314],″+++″ (≥50 = +++)
5,287 (FLWEEKFNSL; listed as Homo sapiens) [compound 287],″++++″ (≥75% = ++++)
6,279 (YMAPEVVEA; listed as Homo sapiens) [compound 279],″+++″ (≥50 = +++)
7,43 (FLLGPEALSFA; listed as Homo sapiens) [compound 43],″++++″ (≥75% = ++++)
8,293 (ALDIMIPMV; listed as Homo sapiens) [compound 293],″+++″ (≥50 = +++)
9,90 (VIADLGLIRV; listed as Homo sapiens) [compound 90],″+++″ (≥50 = +++)
10,165 (TLDDDLDTV; listed as Homo sapiens) [compound 165],″++″ (≥20% = ++)
11,9 (ALCDTLITV; listed as Homo sapiens) [compound 9],″+++″ (≥50 = +++)
12,14 (ALLRLLPGL; listed as Homo sapiens) [compound 14],″+++″ (≥50 = +++)
13,381 (YLLEENKIKL; listed as Homo sapiens) [compound 381],″+++″ (≥50 = +++)
14,180 (LLKDGPEIGL; listed as Homo sapiens) [compound 180],″++″ (≥20% = ++)
15,35 (FILPSSLYL; listed as Homo sapiens) [compound 35],″+++″ (≥50 = +++)
16,59 (FVFGDENGTVSL; listed as Homo sapiens) [compound 59],″+++″ (≥50 = +++)
17,221 (ALVSTIIMV; listed as Homo sapiens) [compound 221],″+″ (≥10% = +)
18,142 (QLDEPAPQV; listed as Homo sapiens) [compound 142],″++″ (≥20% = ++)
19,87 (HQIEAVDGEEL; listed as Homo sapiens) [compound 87],″++″ (≥20% = ++)
20,316 (MLLEHGITL; listed as Homo sapiens) [compound 316],″+++″ (≥50 = +++)

row,Substance,Peptide Exchange
1,232 (FMHQIIDQV; listed as Homo sapiens) [compound 232],″++++″ (≥75% = ++++)
2,254 (QLIPKLIFL; listed as Homo sapiens) [compound 254],″+++″ (≥50 = +++)
3,215 (VMQDIVYKL; listed as Homo sapiens) [compound 215],″+++″ (≥50 = +++)
4,161 (SMDDGMINV; listed as Homo sapiens) [compound 161],″+++″ (≥50 = +++)
5,350 (ALEDRVWEL; listed as Homo sapiens) [compound 350],″+++″ (≥50 = +++)
6,228 (FLGGLSPGV; listed as Homo sapiens) [compound 228],″+++″ (≥50 = +++)
7,217 (ALDEPPYLTV; listed as Homo sapiens) [compound 217],″+++″ (≥50 = +++)
8,283 (ILQPMDIHV; listed as Homo sapiens) [compound 283],″+++″ (≥50 = +++)
9,285 (GVATAGCVNEV; listed as Homo sapiens) [compound 285],″++++″ (≥75% = ++++)
10,126 (LLPEGGITAI; listed as Homo sapiens) [compound 126],″+++″ (≥50 = +++)
11,291 (ILLNEDDLVTI; listed as Homo sapiens) [compound 291],″+++″ (≥50 = +++)
12,123 (LLLAEAELLTL; listed as Homo sapiens) [compound 123],″++″ (≥20% = ++)
13,255 (YLFEEAISM; listed as Homo sapiens) [compound 255],″+++″ (≥50 = +++)
14,249 (LLPTGVFQV; listed as Homo sapiens) [compound 249],″+++″ (≥50 = +++)
15,3 (VIAELPPKV; listed as Homo sapiens) [compound 3],″++″ (≥20% = ++)
16,53 (FLWQHVELVL; listed as Homo sapiens) [compound 53],″+++″ (≥50 = +++)
17,377 (VVDGTCVAV; listed as Homo sapiens) [compound 377],″+++″ (≥50 = +++)
18,367 (NLWSLVAKV; listed as Homo sapiens) [compound 367],″+++″ (≥50 = +++)
19,105 (KLMNDIADI; listed as Homo sapiens) [compound 105],″++″ (≥20% = ++)
